Measured values published in the supplement of paper PMC10567573.

B1: SNAP91 (parent)
chain: FAAPSPATTASPAKVDSSGVIDLF
B2: RTN1 (parent)
chain: VVAYLALAALSATISFRIYKSVLQ

Variants of: B1
Test: protein stability index of a GFP-peptide fusion (GPS, HEK-293T) (PSI 1-6); higher = more stable
Settings: c terminus: a fixed tail appended
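Note: lentivirally expressed fusions sorted by FACS into six bins by GFP to DsRed ratio, PSI derived from sequencing read proportions per bin multiplied by bin number.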

Protein stability index: each site, then its substitutions
L23: Q 4.46; R 3.76; S 4.11; T 3.74; V 2.83; W 2.55; Y 3.2
F24: A 4.03; D 4.54; E 4.51; G 4.35; H 4.52; I 3.34; K 4.2; L 3.13; M 3.72; N 4.1; P 4.31; Q 3.85; R 3.56; S 3.77; T 3.75; V 3.99; W 1.22; Y 2.88

Variants of: B2
Test: as above
Settings: c terminus: a fixed tail appended

Protein stability index, by site and new letter:
V2: C 3.71; G 1.72; R 3.31; P 1.66; A 2.61; M 2.66; N 2.97; D 2.43; F 2.9; K 4.51; I 1.66; S 2.18
Y4: Q 2.68; H 2.65; W 1.9; C 3.23; E 2.1; P 1.75; D 2.35; G 4.1; M 2.6; R 3
V1: Q 2.13; T 2.62; I 2.75; A 3.01; Y 2.03; K 1.61; G 1.96; W 1.72; F 2.66; R 2.44
Q24: P 2.84; G 2.92; K 2.45; D 3.01; I 1.85; C 2.5; L 2.2
A6: M 3.4; T 2.77; Y 2.9; H 2.32; K 2.74; R 3.2; W 3.42
I14: E 3.06; N 1.02; G 2.49; A 2.8
T13: Y 1.86; V 2.39
F16: V 2.15; K 1.86; Q 3; A 2.88; S 2.99; N 2.28; P 4.4
Y19: C 2.46; H 2.75; I 2.51; R 3.4
S21: P 1.65; H 1.9; K 1.45
I18: L 1.99; S 2.78; Y 3.91; K 4.46; T 1.35; R 2.8; E 3.04; N 3.51; G 2.69
A8: H 1.75; N 1.69; W 3.8; C 1.26; R 2.18; M 4.1; D 2.28; P 3.27; K 2.2
K20: T 3.84; A 3.28; N 2.27
L5: Y 1.83; T 2.43
S11: V 1.41; F 2.3; C 1.28; H 2.33; D 3.61
L7: G 3.96; M 2.91; K 3.13; T 2.52; I 2.46; R 2.26; N 2.38; E 2.39; D 1.99
L10: A 2.38; K 2.42; M 3.33; E 2.17; W 2.44
L23: Y 3.05; P 2.48; Q 1.9
A3: Y 3.35; H 2.2; R 2.69; V 2.16; M 2.6; K 1.08; D 2.01; P 2.66
A9: E 2.85; C 2.86; V 2.94; S 2.41; F 2.86
V22: A 3.36; C 3.58; E 3.42; F 3.99; R 2.44; I 1.83
R17: I 2.21; K 2.03; F 1.94
S15: C 2.23; M 1.21; P 2.71; Q 2.82; A 1.01; V 4.48
A12: L 3.9; Q 2.67; C 2.45
